Tests used:
[1] = target: TLR4 TIR domain, 670-835 (UniProt Q9QUK6); assay: fluorescence titration of FAM-labelled peptide; conditions: reference: unphosphorylated Y96 peptide; sites Y96
[2] = target: FAM-labelled phosphorylated SCIMP Y96 peptide (amino acids 90-107) (mouse); assay: other fluorescence titration; FAM-labelled SCIMP Y96 peptides (aa 90-107) titrated with unlabelled TLR4-TIR; 25 °C, 30 mM Tris pH 7.4, 150 mM NaCl, 1 mM dithiothreitol; curve fit (Grafit)
[3] = target: FAM-labelled unphosphorylated SCIMP Y96 peptide (amino acids 90-107) (mouse); assay: as above
[4] = target: TLR4 (UniProt Q9QUK6); assay: co-immunoprecipitation of SCIMP, TLR4 blot; conditions: reference: wild type SCIMP; sites Y96

## SCIMP 90-107 (from UniProt Q3UU41) pY96 peptide
[1]
  KD: stronger; reference >2.5 μM

## His-TLR4-TIR (cytoplasmic TIR domain of mouse TLR4, amino acids 670-835) (from UniProt Q9QUK6 670-835) (domain or fragment)
[2]
  Kd: 159 nM
[3]
  Kd: > 2500 nM

## SCIMP (from UniProt Q3UU41) Y96F
[4]
  binding against the reference: lost

Source: publication PMC5253658
